Assay results reported in EP4545090A1 (Universität Leipzig, dated 2025).

T1: IFNGR1, human, endogenous in podocytes (human, UniProt P15260 18-489)
T1 construct: whole, on cells
T1 sequence (looked up): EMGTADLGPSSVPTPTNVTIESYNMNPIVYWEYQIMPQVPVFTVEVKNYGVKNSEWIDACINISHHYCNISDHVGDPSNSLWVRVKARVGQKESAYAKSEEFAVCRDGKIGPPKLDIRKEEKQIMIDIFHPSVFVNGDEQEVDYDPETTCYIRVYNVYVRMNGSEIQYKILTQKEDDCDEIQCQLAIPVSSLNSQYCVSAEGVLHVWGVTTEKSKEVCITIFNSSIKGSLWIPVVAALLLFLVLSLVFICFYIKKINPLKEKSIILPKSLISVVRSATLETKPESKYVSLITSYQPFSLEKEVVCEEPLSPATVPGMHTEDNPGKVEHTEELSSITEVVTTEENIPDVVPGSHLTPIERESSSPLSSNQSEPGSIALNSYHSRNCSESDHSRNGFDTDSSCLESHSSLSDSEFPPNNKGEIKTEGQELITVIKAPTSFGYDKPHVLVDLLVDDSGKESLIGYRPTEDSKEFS


Key:
[1] = target: IFNAR1 as used in the microscale thermophoresis binding assay (Homo sapiens (Human)) (UniProt P17181); test: microscale thermophoresis binding assay
[2] = target: T1, IFNGR1, human, endogenous in podocytes; test: TF co-immunoprecipitation from human podocyte lysates, immunoblot

Kd [1] [nM] | binding result [2] | Molecule
1160 |  | tissue factor (TF) as used in the microscale thermophoresis binding assay (from UniProt P13726 33-251) (receptor)
 | no binding | tissue factor (TF), human, as expressed by cells (receptor, also called hTF; human TF) SGTTNTVAAYNLTWKSTNFKTILEWEPKPVNQVYTVQISTKSGDWKSKCFYTTDTECDLTDEIVKDVKQTYLARVFSYPAGNVESTGSAGEPLYENSPEFTPYLETNLGQPTIQSFEQVGTKVNVTVEDERTLVRRNNTFLSLRDVFGKDLIYTLYYWKSSSSGKKTAKTNTNEFLIDVDKGENYCFSVQAVIPSRTVNRKGTDSPVECMGQEKGEFREIFYIIGAVVFVVIILVIILAISLHKCRKAGVGQSWKENSPLNVS
